Laboratory results reported in PMC6332120.

Biological target: thioredoxin glutathione reductase (TGR) from Mesocestoides vogae (Mesocestoides vogae (endogenous in tetrathyridium larvae))
Assay: SEC; 25%-50% ammonium sulfate fraction of the larval extract, dialysed against PBS, on HiLoad 16/600 Superdex 200 pg; TR and GR activities traced in the fractions

“thioredoxin glutathione reductase (TGR) from Mesocestoides vogae (enzyme)” gave a stoichiometry N of 2.
